Assay results published in patent US12195506B2, “Immunotherapy with A*01 restricted peptides and combination of peptides against cancers and related methods” (Immatics Biotechnologies GmbH, priority 2018, dated 2025).

Each substance was assayed against HLA-A*01:01 (Homo sapiens, UniProt P04439, A114D/A174V/A182V/D101N/D185E/E176A/E190D/L180R/Q94H/R68K/S129P/T187R/V100A/V91M/W191G) (assay: MHC binding assay: UV-ligand exchange, ELISA of stabilized MHC complexes (peptide exchange yield)). Details: binding to HLA-A*01:01, UV-ligand exchange.
Source text: Candidate peptides for T cell based therapies according to the present invention were further tested for their MHC binding capacity (affinity). The individual peptide-MHC complexes were produced by UV-ligand exchange, where a UV-sensitive peptide is cleaved upon UV-irradiation and exchanged with the peptide of interest as analyzed. Only peptide candidates that can effectively bind and stabilize the peptide-receptive MHC molecules prevent dissociation of the MHC complexes. To determine the yield of the exchange reaction, an ELISA was performed based on the detection of the light chain (β2m) of stabilized MHC complexes. The assay was performed as generally described in Rodenko et al. (Rodenko et al., 2006)
96 well MAXISorp plates (NUNC) were coated over night with 2 ug/ml streptavidin in PBS at room temperature, washed 4× and blocked for 1 h at 37° C. in 2% BSA containing blocking buffer. Refolded HLA-A*02:01/MLA-001 monomers served as standards, covering the range of 15-500 ng/ml. Peptide-MHC monomers of the UV-exchange reaction were diluted 100-fold in blocking buffer. Samples were incubated for 1 h at 37° C., washed four times, incubated with 2 ug/ml HRP conjugated anti-β2m for 1 h at 37° C., washed again and detected with TMB solution that is stopped with […]. Absorption was measured at 450 nm.

| Substance | Peptide exchange |
| --- | --- |
| 1 (TLDSTRTLY; listed as Homo sapiens) [compound 1] | ++++ (>75% = ++++) |
| 2 (VDPIGHLY; listed as Homo sapiens) [compound 2] | ++ (>20% = ++) |
| 3 (FGTTPAAEYF; listed as Homo sapiens) [compound 3] | ++ (>20% = ++) |
| 4 (RIEAIRAEY; listed as Homo sapiens) [compound 4] | ++ (>20% = ++) |
| 5 (FMVIAGMPLFY; listed as Homo sapiens) [compound 5] | +++ (>50 = +++) |
| 6 (ARDPITFSF; listed as Homo sapiens) [compound 6] | ++ (>20% = ++) |
| 7 (ASDDVRIEVGLY; listed as Homo sapiens) [compound 7] | ++++ (>75% = ++++) |
| 8 (TSRAANIPGY; listed as Homo sapiens) [compound 8] | + (>10% =+) |
| 9 (QLDSTLDSY; listed as Homo sapiens) [compound 9] | +++ (>50 = +++) |
| 13 (NTHTGTRPY; listed as Homo sapiens) [compound 13] | ++ (>20% = ++) |
| 14 (QSEKEPGQQY; listed as Homo sapiens) [compound 14] | +++ (>50 = +++) |
| 15 (YLDSSKPAVY; listed as Homo sapiens) [compound 15] | +++ (>50 = +++) |
| 16 (NSDISIPEY; listed as Homo sapiens) [compound 16] | +++ (>50 = +++) |
| 17 (ASWAVLCYY; listed as Homo sapiens) [compound 17] | +++ (>50 = +++) |
| 20 (LSAQHRMLA; listed as Homo sapiens) [compound 20] | ++ (>20% = ++) |
| 21 (LSSAVNPIIY; listed as Homo sapiens) [compound 21] | ++ (>20% = ++) |
| 22 (VMDTLGLFY; listed as Homo sapiens) [compound 22] | ++++ (>75% = ++++) |
| 23 (DTDPLKAAGL; listed as Homo sapiens) [compound 23] | + (>10% =+) |
| 25 (AMMQEAQLAY; listed as Homo sapiens) [compound 25] | +++ (>50 = +++) |
| 28 (PSEVPVDSHYY; listed as Homo sapiens) [compound 28] | +++ (>50 = +++) |
| 29 (TLEDLDNLYNY; listed as Homo sapiens) [compound 29] | +++ (>50 = +++) |
| 30 (VTTDKPRAY; listed as Homo sapiens) [compound 30] | ++ (>20% = ++) |
| 31 (VSDHLQAGMLGQY; listed as Homo sapiens) [compound 31] | +++ (>50 = +++) |
| 32 (GTDKQNSTLRY; listed as Homo sapiens) [compound 32] | +++ (>50 = +++) |
| 34 (SSWSAGENDSY; listed as Homo sapiens) [compound 34] | +++ (>50 = +++) |
| 35 (SWSAGENDSYS; listed as Homo sapiens) [compound 35] | + (>10% =+) |

| Substance | Peptide exchange |
| --- | --- |
| 36 (MTSTEQSLY; listed as Homo sapiens) [compound 36] | +++ (>50 = +++) |
| 38 (KSWSQSSSLMY; listed as Homo sapiens) [compound 38] | +++ (>50 = +++) |
| 39 (WSQSSSLMY; listed as Homo sapiens) [compound 39] | ++++ (>75% = ++++) |
| 40 (TSDQLGYSY; listed as Homo sapiens) [compound 40] | +++ (>50 = +++) |
| 41 (HSDLLEDSKY; listed as Homo sapiens) [compound 41] | +++ (>50 = +++) |
| 43 (ETEPERHLGSY; listed as Homo sapiens) [compound 43] | +++ (>50 = +++) |
| 44 (IPSFNEMVY; listed as Homo sapiens) [compound 44] | ++ (>20% = ++) |
| 45 (NLDPNKIY; listed as Homo sapiens) [compound 45] | + (>10% =+) |
| 46 (RSDPGGGGLAYAAY; listed as Homo sapiens) [compound 46] | ++++ (>75% = ++++) |
| 47 (WSDGVPLLY; listed as Homo sapiens) [compound 47] | ++++ (>75% = ++++) |
| 48 (FTTQDELLVY; listed as Homo sapiens) [compound 48] | +++ (>50 = +++) |
| 49 (GSFSIQHTY; listed as Homo sapiens) [compound 49] | ++ (>20% = ++) |
| 50 (ITDEDEDMLSY; listed as Homo sapiens) [compound 50] | +++ (>50 = +++) |
| 51 (STEERRLNY; listed as Homo sapiens) [compound 51] | +++ (>50 = +++) |
| 52 (TTQDELLVY; listed as Homo sapiens) [compound 52] | +++ (>50 = +++) |
| 55 (ATEGDVLNY; listed as Homo sapiens) [compound 55] | +++ (>50 = +++) |
| 56 (VTEYAEEIYQY; listed as Homo sapiens) [compound 56] | +++ (>50 = +++) |
| 57 (ASDPASSTSCY; listed as Homo sapiens) [compound 57] | +++ (>50 = +++) |
| 58 (YLENSASWY; listed as Homo sapiens) [compound 58] | ++++ (>75% = ++++) |
| 59 (FTDSQGNDIK; listed as Homo sapiens) [compound 59] | +++ (>50 = +++) |
| 62 (VSELVTTGHY; listed as Homo sapiens) [compound 62] | +++ (>50 = +++) |
| 63 (TSEISQNALMY; listed as Homo sapiens) [compound 63] | ++++ (>75% = ++++) |
| 65 (SSDFDPLVY; listed as Homo sapiens) [compound 65] | ++++ (>75% = ++++) |
| 67 (NVDQNQNSY; listed as Homo sapiens) [compound 67] | +++ (>50 = +++) |
| 68 (QSLPEFGLTY; listed as Homo sapiens) [compound 68] | ++ (>20% = ++) |
| 69 (QSLPEFGLTYY; listed as Homo sapiens) [compound 69] | ++ (>20% = ++) |

| Substance | Peptide exchange |
| --- | --- |
| 72 (VTDSTTKIAY; listed as Homo sapiens) [compound 72] | +++ (>50 = +++) |
| 74 (EMEQQSQEY; listed as Homo sapiens) [compound 74] | ++++ (>75% = ++++) |
| 76 (QTDVERIKDTY; listed as Homo sapiens) [compound 76] | +++ (>50 = +++) |
| 78 (QLDSAVKNLY; listed as Homo sapiens) [compound 78] | +++ (>50 = +++) |
| 80 (ELCPLPGTSAY; listed as Homo sapiens) [compound 80] | ++ (>20% = ++) |
| 85 (SSDNYEHWLY; listed as Homo sapiens) [compound 85] | ++++ (>75% = ++++) |
| 86 (VDPASNTY; listed as Homo sapiens) [compound 86] | ++ (>20% = ++) |
| 87 (AFDDIATYF; listed as Homo sapiens) [compound 87] | ++ (>20% = ++) |
| 88 (KEVDPAGHSYI; listed as Homo sapiens) [compound 88] | ++ (>20% = ++) |
| 89 (EVYDGREHSAY; listed as Homo sapiens) [compound 89] | ++ (>20% = ++) |
| 90 (YEDHFPLLF; listed as Homo sapiens) [compound 90] | ++ (>20% = ++) |
| 92 (TTDDTTAMASAS; listed as Homo sapiens) [compound 92] | ++ (>20% = ++) |
| 93 (HLKILSPIY; listed as Homo sapiens) [compound 93] | +++ (>50 = +++) |
| 94 (KPSAVKDSIY; listed as Homo sapiens) [compound 94] | ++ (>20% = ++) |
| 95 (SSDPKAVMF; listed as Homo sapiens) [compound 95] | ++ (>20% = ++) |
| 97 (FPAPPAHWFY; listed as Homo sapiens) [compound 97] | ++ (>20% = ++) |
| 98 (NFSDLVFTY; listed as Homo sapiens) [compound 98] | ++ (>20% = ++) |
| 99 (AADSNPSEL; listed as Homo sapiens) [compound 99] | ++ (>20% = ++) |
| 100 (TTSSAISWILY; listed as Homo sapiens) [compound 100] | +++ (>50 = +++) |
| 101 (SITDVDFIY; listed as Homo sapiens) [compound 101] | ++ (>20% = ++) |
| 102 (STIRGELFF; listed as Homo sapiens) [compound 102] | ++ (>20% = ++) |
| 103 (ITDTLIHLM; listed as Homo sapiens) [compound 103] | +++ (>50 = +++) |
| 104 (ITDTLIHL; listed as Homo sapiens) [compound 104] | ++ (>20% = ++) |
| 105 (VVFDKSDLAKY; listed as Homo sapiens) [compound 105] | ++ (>20% = ++) |
